Test: label from the status in PepcDB records

Sequence	protein production
ESEKSFRILFEKSPEGFLILDGGGNILEANPAALGMLGEEMEALQGRGVFELLQGEKIPLKEEEMNQKIERIYENRLGQEVLLETILIPAQVEGKARIFAIWRDVT	failed
MSSLRHRRYVLGGLLAAIGVLAAAVLWNVVGTVFFAVTVAYVLYPARQRLVNRGVPRRVASGLLTAAAFLTVVVLLAPIAWTIFRQRGAILEFLNNLPDELPVEAFGFVVTIDVADLVDTTADTLQSIAISLAADAIFLALQLLMFALVLYGLLLRPNAVGRAAFRVTPSPYHDILVALHRRIAGTLYALYVIQAATAVITFPLALIVFYLLGYPDVFVLAVLAALLQFIPIVGPGMLAAGLAGHDVLVGMPHRAVGVIILGPLFVGLLPDLLVRPRLAASKAKLPASLYFVGFVGGVLTVGVIGIIAGPLVVALLVEAVNLLSERNQSAA	failed
MGVVHHSVYAVYLEAARVDFLERAGLPYHRVEARGVFFPVVELGLTFRAPARFGEVVEVRTRLAELSSRALLFRYRVEREGVLLAEGFTRHLCQVGERAARIPEDIYRALSVLHLK	not failed
MTTALRQPTLSSQCLAEFLGTALLIFFGTGCVAALKVAGASFGLWEISIIWGVGVSMAIYLTAGISGAHLNPAVSIALTLFAGFDKRKLPFYMLAQVCGAFCGAALVYTLYSNLFFDFEQAHAMLRGSEGSLELASVFSTYPHPSLSTSQAFLVEVVITAILMAVIMALTDDNNGLPRGAMAPLLIGLLIAVIGSAMGPLTGFAMNPARDFGPKLMTFLAGWGEIAFTGGRDIPYFLVPVFAPILGACLGAASYRGLIARNLPMAPAATPETNDIRQGDTQAN	failed
MKILSIHDLQIIRKRAEHHLSLREESNEKVSEKCCGLASGTTHLQILICGGTGCKASSSQGITENLQKAIERNGITDKVDVITVGCFGFCEKGPIVKIIPDNTFYTQVTPEDAEEIISEHIIGGRRIERLLYIDPKTEQTVSDSKHMDFYRKQLRIALRNCGFIDSENIEEYIAREGYFALADCLLNKQPADVIDIIKRSGLRGRGGGGFPTGLKWEFASKQVSNVKYVVCNADEGDPGAFMDRSIMEGDPHSIVEAMCICGYSIGSSKGLVYIRAEYPLAINRLKKAIEQAREYGLLGDHILGTDFSFDIEIRYGAGAFVCGEETALIHSMEGKRGEPTLKPPFPAESGYLGKPTNVNNVETLANIPIILTKGAEWFASIGTERSKGTKVFALAGKINNVGLIEVPMGTTLREVIYEIGGGIKGGKKFKAVQTGGPSGGCLTEKHLDTPIDFDNLLAAGSMMGSGGMIVMDEDDCMVSVARFYLDFTVEESCGKCTPCRIGNKRLLELLNKITEGRGTEKDLDTLATLGRVIKDTALCGLGQTSPNPVLSTLDNFRDEYLEHVRDKTCRAKQCKSLLTYTINPELCIGCHLCAKNCPADAISGLVRKPHVIHPEKCIKCGMCMARCKFKAILVC	failed
MCIAVIGGMDRLERHYRQEAARTGFELRVFSQSENNIATKLKRFDALVIFTNKVSHRVRNEAMSAAKLNGIPVFQYHSCGVCTLRDCLNCLVLPAGGGTKLEHHHHHH	failed
MDKQSERNESKLFISNMVESAIRIGLIFVLLMFTYDIIRPFILPVIWGAIIAVALLPLTKKLQRAYGGRRGLAATTIVLLGIALLVTPLVMVSGSIVDGATHALDVLQNGQVKIPGPKASVADWPLVGDKLYEVWTLFATNLEQAIQTFMPQIKSALTSLLGMVGGVLGSLLLSILSLAIAAGFMTYSESLASGLQTIAIRTAGENAKSWTTLIAATIKSVLLGVVGVAAIQALLIGAGFFVFGVPAAGLLTLILMILCIAQLPALLAVLPVIGYMYMTQDSTTATMFTVWAVVGALSENLLKPMFMGRGVDVPMPVILLGAIGGMLFYGIVGLFLGAVILAIWYELFVWWLSIEKAQQQEEMAELKEEEEQTESGHGAGI	not failed
MTMTRERLYLFDTTLRDGQQTPGIDFSVEDKIAIAKLLDEFGMDYVEGGYPGANPTDTAFFQQKRTASAKFVAFGMTKRAGVSASNDPGLAALVQSKSDAICFVAKSWDYHVRVALGCTNEENLESIKTSVETAVASGKEAMVDCEHFFDGFKANPDYALACAKTAYDAGARWVVLCDTNGGTQPSEVRTIVAKVIASSIPGDHLGIHAHDDTGQAVANSLAAVEAGVRQIQGTLNGIGERCGNANLISIVPTLALKPAFADRFVSGISAEALTGISRLSRAFDELLNRAPEAQAPYVGASAFATKAGIHASALAKEPATYEHVPPESVGNRRRVMVSDQGGKANFLAELKRRGIEVPRDDHRLDALISVVKEREAEGYAYEGADASFELLARKMLHGLPEFFNVTSFRCMVERRFDANGNLKTVSEAIVKVEVDGEEKMSVAEGHGPVNALDIALRKDLGKYQSEIVDLELADFKVRILNGGTEAITRVLIESHDGTGARWWTVGVSENIIDASFQALMDSIIYKLMKNREMAGLVAAE	failed
MAEKALATLKELAFLEDPSPVERDAAIQRFEYTFEAFWKALQAYLREKEGLEGASPKGVIRLAREVGLLRDEEARLALGMVDDRSLTVHTYNEPLARAIFRRLPDYARLMEQVLGRLRR	not failed
MSTDNLLQPKLIEATLGDYPVIQNMARFYVYDMSRYCGFISEEWTCPPDGLYESYDFKIYFTDPERKAFLIQIDNELAGFALLNKFGIQAVDWSMGEFFILAKFQGKGIGQSVAHQLWRTHPGEWEISVIPENIPALSFWRQAVMTYTL	not failed
MKTAELIFVPLPETGHLLSTIEFGKRLLNLDRRISMITILSMNLPYAPHADASLASLTASEPGIRIISLPEIHDPPPIKLLDTSSETYILDFIHKNIPCLRKTIQDLVSSSSSSGGGSSHVAGLILDFFCVGLIDIGREVNLPSYIFMTSNFGFLGVLQYLPERQRLTPSEFDESSGEEELHIPAFVNRVPAKVLPPGVFDKLSYGSLVKIGERLHEAKGILVNSFTQVEPYAAEHFSQGRDYPHVYPVGPVLNLTGRTNPGLASAQYKEMMKWLDEQPDSSVLFLCFGSMGVFPAPQITEIAHALELIGCRFIWAIRTNMAGDGDPQEPLPEGFVDRTMGRGIVCSWAPQVDILAHKATGGFVSHCGWNSVQESLWYGVPIATWPMYAEQQLNAFEMVKELGLAVEIRLDYVADGDRVTLEIVSADEIATAVRSLMDSDNPVRKKVIEKSSVARKAVGDGGSSTVATCNFIKDILGDHF	failed
MAIDTTSSAPVHEPQPPLDTRLSTRDKLVLFVLCAAQFMVALDFSVLNVALPVLGRDLGMSQSALQWAVTAFALPSGGFLLLFGRIGDLYGRRRLFLTGLALFGTASLLATFAWDPASFLAGRALQGLGAAAIVPTGMSLLTTTFPEGPARDRALGISGTLLSLGFTVGMVAGGVLTDAFGWRSTMGLLTLFALIVLPLAPGLLPESRTPDRPRLDIPGAVTVTGGLLSLIYALSTAAERGFGGTDVIATLVAGVLLLAAFVTVESHAEAPLVSLPMLRRRTVAWGNLGGLITFSMMSTVVFVLTLYLQETLGLSAFETGLVFGVQGVLSAVAGANASKVIGRLGARRTLVVSLAGQGAFVATLVALGDGGWSVWLATAAVSLASMCHLGAIISYGLTVTSGVPDDEQGLATGLVTSTQQVGITIGIPLLGVLATTSSDLLAGVHTVLALDAVIVLAAAVLIAVGLGRRPATAPGAASGAVEAEAVGSR	failed
MNTRHFSQLPKPYLAYPKVIQGLVFKKPKGSKILPQVEYVVDSFQIDQQHLRDYNEVCGFQNDGFIPAIYLAVLSQSLQMHMMTTEAFPFPVLGLVHIRNQIKQIRKIAVNETLTLSCQFGELKPHDKGLQFDFITTAKVGNDIVMEGITTYLSRQKTEQVSAEKPKENKTPDYQVQQVWDVAENTGRRYAKTSGDYNLIHIHAITAKAFGFKQAIAHGMWSKAKALANIVLPDAYEADVWFKLPMYLPSKVEFLTAEQSKETDFLIRNAKSQKPHVSGVVKAL	failed
MMIMERHYTLKEASKILGVSIKTLQRWDKAGKIKCIRTLGGKRRVPESEIKRILGIKDKEQRKIIGYARVSFNAQKDDLERQIQLIKSYAEENGWDIQILKDIGSGLNEKRKNYKKLLKMVMNRKVEKVIIAYPDRLTRFGFETLKEFFKSYGTEIVIINKKHKTPQEELVEDLITIVSHFAGKLYGMHSHKYKKLTKTVKEIVREEDAKEKE	failed
MKPNEVQIQLERLFRTPIEHPDSSKTAPIAISDLFVQIDPAAGEVQLFNDKDEELHRVVIYDWIQEGRTEIPSAMRQELRAAVKRLHAARFFDKDQFVRPFSVALTQEDFTIIEELLFIDDELIQLDSALLENLDEELNNFLAELLPDIKLEHHHHHH	not failed
MGIRVKRRQHQHLLESLVHSTAKQQGDFTKTAELATELLCQNLAVSLVSIWIFSADQGTQSLVAQFGSMALQDTYRPSLLHTVPRYLNELKNYRHIDAGNTLIDPRLTELVDSYFIPRQILSSLDVGIRINGHLEGVLCIERAQVTHHWHDSEIHLACQMADQLALTLATKHAYDKEERLSLFRCAIEQSRQMSMLEHHHHHH	not failed
MISKVIEALAVFTTSVISSMGYGGIVLLMAIESACIPLPSEIIMPFAGYLVYRGEMTLHGAALAGAIGCVVGSIPAYYLGQFGGRPLIEKYGRYVLLSHKELDLADRLFQRWGQWVVFAGRLLPVVRTFIAFPAGVSRMPMGKFIAYTFVGSYPWCYALAWVGEWAGEAWHTDPRVKAVYHRFELVIVVAGVLAVAWFVWHKVKEARRARVPAAADEG	failed
MNLLYVVLIGQILLFLIGAIYAMRQTKRTKDNMPLPLAIRLILSFSLTGSAIWIWLQDPSVEYSTWVALGMTLSTVGDLFMAGLIPIGHRLIGGMVTFALAHCFYVKAFLQTGISWNGFWIGLLVYGLFLIVGWFFFIRNDKQDKLFTIGALIYGLWVGGMACFAFALYYENTGIWWIPAFGGLLFVISDFIIGVTDIGGRKLKYEPLWIWFTYVAAQMCIVYVGL	failed
MNKFGAEKIFIEKQSGATITHRPIFQEALDFVRAQDIFIVEAIDRLGRNYDEIIDSVNYLKKKNVRLIITSLPIMAEAIGNPLLDKFIKDLIIQILAMIAEQERTESKRRQAQGIKIAKANGVYKGRPKLYSADTKDPQRRLVYKSIVQDLKNGVAISKIAKDYNITRQTIYRIKKEIHELEIN	failed
MTFTSSFHYQALPMRVSFEVGAVTKIGEELDRLGLSRALVLCTPEQKHLADLVMDHLGDRGAGIFDQARMHVPVETADRARDRARKLGADSCVVIGGGSSIGLGKAIALEHGLPIIAIPTTYAGSEMTPIWGLTRDGRKQTGRDAKVLPQSVIYDPQLTATLPAEISAASGLNAVAHAVEALYAPDASPIISLMAEEGVRAFAESLPAVVADGNDLDARSKALYGAWLCGACLGATTMSLHHKLCHVLGGSLDLPHAQTHAIVLPHVLGYNESHAPAARAALQRALGTDGDPSTALWELEQQLQIPHSLEELGVRETQLPAVIDEVLSNPYSNPTPVTEDGLRHLLGQALRGDRPTRR	failed
MTKSYDVWWQKGQESDDDMARDHQEAWERTIEMLDTSDIKGKTILDVGCNQGGFLRKLYDTTPFKEGVGIDLARLSLEKAETLKGERPLTYYLTDKPQETNRTFDTAVSTSVLYLIEDIPQHAQDLKEVLKPGGVYYASFADLTNNPSRQFMDDTINQYGATPSQNHSLKHIVDSFVDAGFEVAVMKEPVPDVIDLTHYSDFYLSPNDYLQTLYEESFLIKASVKEGIGKLEHHHHHH	not failed
MSLNLTIGTSKFNPPFEVWSGNNSSLYGFDIDLMQEICRRLHATCTFEAYIFDDLFPALKNREVDLVIASMIITDERKKHFIFSLPYMESNSQYITTVDSKISTFDDLHGKKIGVRKGTPYARQVLSENRNNQVIFYELIQDMLLGLSNNQVDASLMDYEAAKYWMASEPYAYKLIGKKYKLIGKKISIGEGYSIMANPDQFVLIKKINKILLEMEADGTYLRLYSEYFEGHHHHHH	not failed
NWKTRLRMLNHFPKPTFEDIPLLDLALSDEKVPVRRQAIVLLGMIESKEILPYLYKGLRDKSPAVRRTAGDCISDLGYPEALPEMVLLLDDPQKIVRWRAAMFIFDEGNAEQLPALKAHINDNAFEVKLQIEMAISRIENGDEALGSVWKQMAN	failed
